Assay results published in the nanobody polyreactivity screen of Harvey et al. (2022).

Assay: yeast display, Sf9 membrane polyspecificity reagent, FACS + sequencing; frameworks hold sequencing errors
How it was run: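 Sorting gates, low and high (top ~1%), were placed on anti-HA fluorescence to track expression and on streptavidin fluorescence to track reagent binding. A clone's polyreactivity label is taken from the gate it came out of. The reagent was 10% biotinylated, detergent-solubilized Sf9 membrane, applied for 1 hour at 4 °C to galactose-induced yeast display cells.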

Sequence: QVQLVESGGGLVQAGGSLRLSCAASGRIFDGYAMGWYRQAPGKESELVATIDVSGGRTTYADSVKGRFTISRDNAKNTVYLQMNSLKPEDTAVYYCNVDYYWSSGGTDYDYWGQGTQVTVSS
- polyreactivity (PSR sort gate): low polyreactivity

Sequence: QVQLVESGGGLVQAGGSLRLSCAASGRIFDGYDMGWYRQAPGKERELVAAITSVGSTNYADSVKGRFTISRDNAKNTVYLQMNSLKPEDTAVYYCAAVLYVFYDEYGYWEYFSQYDYWGQGTQVTVSS
- polyreactivity (PSR sort gate): low polyreactivity

Sequence: QVQLVESGGGLVQAGGSLRLSCAASGRIFDHNAMGWYRPAPGKERELVAAIDWSGGSTYYADSVKGRFTISRDNAKNTVYLQMNSLKPEDTAVYYCNVYWHTFSWDDYGYWGQGTQVTVSS
- polyreactivity (PSR sort gate): low polyreactivity

Sequence: QVQLVESGGGLVQAGGSLRLSCAASGRIFDHYAMGWYRQAPGKERELVAAINSGGTTNYADSVKGRFTISRDNAKNTVYLQMNSLKPEETAVYYCAARPRKGQYYFGGNYWGQGTQVTVSS
- polyreactivity (PSR sort gate): low polyreactivity

Sequence: QVQLVESGGGLVQAGGSLRLSCAASGRIFDIYAMGWYRQAPGKERELVATITRSAGRTYYADSVKGRFTISRDNAKNTVYLQMNSLKPEDTAVYFCAASYWDTEPGYREYEYWGQGTQVTVSS
- polyreactivity (PSR sort gate): low polyreactivity

Sequence: QVQLVESGGGLVQAGGSLRLSCAASGRIFDIYTMGWYRQAPGKERELVASITKRGGSTYYADSVKGRFTISRDNAKNTVYLQMNSLKPEDTAVYYCNAVYSWYRRYGLEGYWGQGTQVTVSS
- polyreactivity (PSR sort gate): high polyreactivity

Sequence: QVQLVESGGGLVQAGGSLRLSCAASGRIFDKYTMGWYRQAPGKERELVAAISKSGSGTFYADSVKGRFTISRDNAKNTVYLQMNSLKPEDTAVYYCARVYTVGTGRSWRLDYCGQGTQVTVSS
- polyreactivity (PSR sort gate): high polyreactivity

Sequence: QVQLVESGGGLVQAGGSLRLSCAASGRIFDLNAMGWYRQAPGKERELVAAITNTGSTNYADSVKGRFTISRDNAKNTVYLQMNSLKPEDTAVYYCARTYWLRYSGYRDDEYDYWGQGTQVTVSS
- polyreactivity (PSR sort gate): low polyreactivity

Sequence: QVQLVESGGGLVQAGGSLRLSCAASGRIFDLNTMGWYRQAPGKERELVAAISSGGSTYYADSVKGRFTISRDNAKNTVYLQMNSLKPEDTAVYYCAADKIRGYRIRMYWGQGTQVTVSS
- polyreactivity (PSR sort gate): low polyreactivity

Sequence: QVQLVESGGGLVQAGGSLRLSCAASGRIFDLNVMGWYRQAPGKERELVAAIRSGGRTNYADSVKGRFTISRDNAKNTVYLQMNSLKPEDTAVYYCNVRRGYWHPGYGWANYDYWGQGTQVTVSS
- polyreactivity (PSR sort gate): high polyreactivity

Sequence: QVQLVESGGGLVQAGGSLRLSCAASGRIFDLYAMGWYRQAPGKEREFVAAISGRGGSTYYADSVKGRFTISRDNAKNTVYLQMNSLKPEDTAVYYCNAKRSLYGRYGYWGQGSQVTVSS
- polyreactivity (PSR sort gate): high polyreactivity

Sequence: QVQLVESGGGLVQAGGSLRLSCAASGRIFDLYTMGWYRQATGKERELVAAIRWSDGSTYYADSVKGRFTISRDNAKNSVYLQMNSLKPVDTAVYYCAADTRTSYYNDDYDYWGQGTQVTVSS
- polyreactivity (PSR sort gate): low polyreactivity

Sequence: QVQLVESGGGLVQAGGSLRLSCAASGRIFDPYAMGWYRQAPGKEREVVASISWSGGRTYYADSVKGRFTISRDNAKNTVYLQMNSLKPEDTAVYYCAARQWYRYKVRIDYWGQGTQVTVSS
- polyreactivity (PSR sort gate): high polyreactivity

Sequence: QVQLVESGGGLVQAGGSLRLSCAASGRIFDPYTMGWYRQAPGKERELVAAISGRTGRTYYADSVKGRFTISRDNAKNTVYLQMNSLKPEDTAVYYCNAVRYVVLPGGPKFDYWGQGTQVTVSS
- polyreactivity (PSR sort gate): high polyreactivity

Sequence: QVQLVESGGGLVQAGGSLRLSCAASGRIFDRYAMGWYRQAPGKERELVASITSSGGNTYYADSVKGRFTISRDNAKNTVYFQMNSLKPEDTAVYYCAKPQRVWQYGNYYYWGQGTQVTVSS
- polyreactivity (PSR sort gate): high polyreactivity

Sequence: QVQLVESGGGLVQAGGSLRLSCAASGRIFDSYAMGSYRQAPGKERELVAVISNNDGTTYYADSVKGRFTISRDNEKNTVYLQMNSLKPEDTAVYYCAAEEPLFGYLWYVVTYAGIYDYWGQGSQVTVSS
- polyreactivity (PSR sort gate): low polyreactivity

Sequence: QVQLVESGGGLVQAGGSLRLSCAASGRIFDSYTMGWYRQEPGKERELVAAISGGGITNYADSVKGRFTISRDNAKNTVYLQMNSLKPEDTAVYYCAARDRYYFGGMYYWGQGTQVTVSS
- polyreactivity (PSR sort gate): low polyreactivity

Sequence: QVQLVESGGGLVQAGGSLRLSCAASGRIFDTNAMGWYRQAPGKEREFVAAISRSGGSTYYADSVKGRFTISRDNAKNTVYLQMNSLKPEDTAVYYCAARWYVLQPLGYDASRYGYWGQGTQVTVSS
- polyreactivity (PSR sort gate): high polyreactivity

Sequence: QVQLVESGGGLVQAGGSLRLSCAASGRIFDTNFIGWYRLAPGKERELVAANSQSGGITYYADSVKGRFTISRDNAKKTVYLQMNSLKPEDTAVYYCAKDTVTVSFNEYDYWGQGTQVTVSS
- polyreactivity (PSR sort gate): low polyreactivity

Sequence: QVQLVESGGGLVQAGGSLRLSCAASGRIFDTNVRGWSRQAPGKERELVAAISSGGSTYYADSVKGRFTISRDNAKTTVYLQMNSLKPEDTAVYYCAAESRTSRARRYYWGQGTQVTVSS
- polyreactivity (PSR sort gate): high polyreactivity

Sequence: QVQLVESGGGLVQAGGSLRLSCAASGRIFDTYAMGWYRQAPGKERELVAAITRRGGSTYYADSVKGRFTISRDNAKNTVYLQMNSLKPEDTAVYYCAKSLVNRHYDYWGQGTQVTVSS
- polyreactivity (PSR sort gate): low polyreactivity

Sequence: QVQLVESGGGLVQAGGSLRLSCAASGRIFDTYVMGWYRQAPGKERELVAAISRSGGSTYYADSVKGRFTISRDNAKNTVYLQMNSLKPEDTAVYYCNKLASWWSAYYNPYEYWGQGTQVTVSS
- polyreactivity (PSR sort gate): high polyreactivity

Sequence: QVQLVESGGGLVQAGGSLRLSCAASGRIFDVYAMGWYRQAPGKERELVAAITWSGTSTYYADSVKGRFTISRDNAKNTVYLQKNSLKPEDTAVYYCAAEVAYTDTEYFWYYYWGQGTQVTVSS
- polyreactivity (PSR sort gate): high polyreactivity

Sequence: QVQLVESGGGLVQAGGSLRLSCAASGRIFDVYAMGWYRQAPGKERELVATITCSGGGTYYADSVKGRFTISRDNAKNSVYLQMNSLKPEDTAVYYCAADYYPTYAYYVSNVGYDYWGQGTQVTVSS
- polyreactivity (PSR sort gate): low polyreactivity

Sequence: QVQLVESGGGLVQAGGSLRLSCAASGRIFDWNMGWYRQAPGKERELVAGITFSVDSTYYADSVKGRFTISRDNAKNTVYLQMNSLKPEDTAYWGQGTQVTVSS
- polyreactivity (PSR sort gate): low polyreactivity

Sequence: QVQLVESGGGLVQAGGSLRLSCAASGRIFDYAMGWYRQAPGKERELVAAISGSGGSTYYADSVKGRFTISRDNAKNTVYLQMNSLKPEDTAVYYCSTSGPQYYSRNFDYWGQGTQVTVSS
- polyreactivity (PSR sort gate): low polyreactivity

Sequence: QVQLVESGGGLVQAGGSLRLSCAASGRIFDYNAMGWYRQAPGKERELVAAITSAGGTNYADSVKGRFTISRDNAKNTVYLQMNSLKPEDTAVYDCAADGSGYYDWYYYWGQGTQVTVSS
- polyreactivity (PSR sort gate): low polyreactivity

Sequence: QVQLVESGGGLVQAGGSLRLSCAASGRIFDYYAMGWYRQAPGKERELVAAISSSVGNTYYADSVKGRFTISRDNAKNSVYLQINSLKQEDTAVYYCADYSYVRSSYEVEYDYWGQGTQVTVSS
- polyreactivity (PSR sort gate): low polyreactivity

Sequence: QVQLVESGGGLVQAGGSLRLSCAASGRIFDYYAMGWYRQAPGKERELVASISRSGGSTYYADSVKGRFTISRDNAKNTVYLQMNSLKPDDSAVYYCAASRGYYYGRVGYWGQGTQVTVSS
- polyreactivity (PSR sort gate): high polyreactivity

Sequence: QVQLVESGGGLVQAGGSLRLSCAASGRIFDYYAMGWYRQAPGKERELVATINFSDGSTYYADSVKGRFTISRDNAKNTVYLQMNSLKPEDTAGYYCAAAGWEPYDSLDMNYWGQGTQVTVSS
- polyreactivity (PSR sort gate): low polyreactivity

Sequence: QVQLVESGGGLVQAGGSLRLSCAASGRIFEHYAMGWYRQAPGKERELVAAITVSVGSTYYADSVKGRFTISRDNAKNTVYLEMNSLKPEDTAVYYCAAGIHCRYARDWYEYWGQGTQVTVSS
- polyreactivity (PSR sort gate): low polyreactivity

Sequence: QVQLVESGGGLVQAGGSLRLSCAASGRIFEINAMGWYRQAPGKERELVAGISYSGGSTYYADSVKGRFTISRDNAKNTVYLQMNSLKPEDTAVYYCAALFQSYQITYDSWGQGTQVTVSS
- polyreactivity (PSR sort gate): low polyreactivity

Sequence: QVQLVESGGGLVQAGGSLRLSCAASGRIFELYAMGWYRQAPGKERELVADITTIGDSTYYADSVKGRFTISRDNAKNTVYLQMNSLKPEDTAVYYCAADPYVDSYDSWGQGTQVTVSS
- polyreactivity (PSR sort gate): low polyreactivity

Sequence: QVQLVESGGGLVQAGGSLRLSCAASGRIFEYYAMGWYRQAPGKERELVAVISSGSSTNYADSVKGRFTISRDNAKNTVYLQMNSLKPEDTAVYYCAAEYSVYYRFSDGDYWGQGTQVTVSS
- polyreactivity (PSR sort gate): low polyreactivity

Sequence: QVQLVESGGGLVQAGGSLRLSCAASGRIFFANAMGWYRQAPGKERELVAAISWRGGSTYYADSVKGRFTISRDNAKNTFYLQMNSLKPEDTAVYYCNAVTRGYYHEMEYWGQGTQVTVSS
- polyreactivity (PSR sort gate): high polyreactivity

Sequence: QVQLVESGGGLVQAGGSLRLSCAASGRIFFANAMGWYRQAPGKEWELVGAISRGGRTNYADSVKGRFTISRDNAKNTVYLQMNSLKPEDTAVYYFAAVRLSHAPSYYLYGMAYWGHGTQVTVSS
- polyreactivity (PSR sort gate): low polyreactivity

Sequence: QVQLVESGGGLVQAGGSLRLSCAASGRIFFAYAMGWYRQAPGKEREFVAAISDNDGSTYYADSVKGRFTISRDNAKNTVYLQMNSLKPEDTAVYYCNADLGYVYDYWGQGTQVTVSS
- polyreactivity (PSR sort gate): low polyreactivity

Sequence: QVQLVESGGGLVQAGGSLRLSCAASGRIFFDYAMGSYRQAPGKEWVLVAAINRGGRTYYADSVKGRFTMSRDNAKNTVYLPMNTLKPEDTAVYYCPADGQTAKSNFAYWGQRTQVTVSS
- polyreactivity (PSR sort gate): low polyreactivity

Sequence: QVQLVESGGGLVQAGGSLRLSCAASGRIFFFNAMGWYRQAPGKERELVARITRGGSTNYADSVKGRFTISRDNAKNTVYLQMNILKPEDTAVYYCARDGYATTNARYGYDYWGQGTQVTVSS
- polyreactivity (PSR sort gate): low polyreactivity

Sequence: QVQLVESGGGLVQAGGSLRLSCAASGRIFFHYAMGWYRQAPGKERELVAVISSSGGITYYADSVKGRFTFSRDNAKNTVYLQMNSLKPEDTAVYYCNTVPRPFDRYGYWGQGTQVTVSS
- polyreactivity (PSR sort gate): low polyreactivity

Sequence: QVQLVESGGGLVQAGGSLRLSCAASGRIFFLNTMGWYRQAPGKERELVAAITRGGSTYYADSVKGRFTISRDNAKNTVYLQMNSLKPEDTAVYYCAADVYGGIGYDYWGQGTQVTVSS
- polyreactivity (PSR sort gate): low polyreactivity

Sequence: QVQLVESGGGLVQAGGSLRLSCAASGRIFFLYAMGWYRQAPGKERELVASINRGGNTNYADSVKGRFTISRDNAKNTVYLHMNSLKPEDTAVYYCAARLVIFYPYSRYYYWGQGTQVTVSS
- polyreactivity (PSR sort gate): high polyreactivity

Sequence: QVQLVESGGGLVQAGGSLRLSCAASGRIFFPYAMGWYRQAPGKERELVAAINYSGGSTYYADSVKGRFTISRDNAKNTVYLQMNSLKPEDTAVYYCADGYFWALYVRKYDYWGQGTQVTVSS
- polyreactivity (PSR sort gate): high polyreactivity
